Reference: the DeepSol protein solubility set

test: soluble on expression in E. coli; label from the status in PepcDB or PDB records

Sequence	soluble on expression in E. coli
MMAARLLGTSSRIFKLNKHLHTSKVAFMPVVQFKLSDIGEGIAEVQVKEWYVKEGDTISQFDKVCEVQSDKAAVTISCRYDGIVKKLYHEVDGMARVGQALIDVEIEGNVEEPEQPKKEAASSSPEAPKSSAPKAPESAHSEGKVLATPAVRRIAIENKIKLAEVRGTGKDGRVLKEDVLKFLGQVPADHTSGSTNIRTTHQAPQPSSKSYEPLKEDVAVPIRGYTRAMVKTMTEALKIPHFGYNDEINVDSLVKYRAELKEFAKERHIKLSYMPFFIKAASLALLEYPSLNSTTDEKMENVIHKASHNICLAMDTPGGLVVPNIKNCEQRSIFEIAQELNRLLEAGKKQQIKREDLIDGTFSLSNIGNIGGTYASPVVFPPQVAIGAIGKIEKLPRFDKHDNVIPVNIMKVSWCADHRVVDGATMARFSNRWKFYLEHPSAMLAQLK	not soluble
NSSKSLEAELVRDRQELIDARKKELKAYMMMGVTAIKPLYDSDVNGSNKQAAKEILKAMRFESDGYFFAYDSQGINTLHAIKPSLEGKNLYDLKDENGVAVIAGLIDASQKGDGFLYFSWHKPTINAQAPKLGYAEYLQKWDWVLGTGIYIDDIDQQVAMQRELRTQELNQHT	soluble
MTWFIDRRLNGKNKSMVNRQRFLRRYKAQIKQSISEAINKRSVTDVDSGESVSIPTEDISEPMFHQGRGGLRHRVHPGNDHFVQNDRIERPQGGGGGSGSGQGQASQDGEGQDEFVFQISKDEYLDLLFEDLALPNLKQNQQRQLTEYKTHRAGYTANGVPANISVVRSLQNSLARRTAMTAGKRRELHALEENLAIISNSEPAQLLEEERLRKEIAELRAKIERVPFIDTFDLRYKNYEKRPDPSSQAVMFCLMDVSGSMDQSTKDMAKRFYILLYLFLSRTYKNVEVVYIRHHTQAKEVDEHEFFYSQETGGTIVSSALKLMDEVVKERYNPAQWNIYAAQASDGDNWADDSPLCHEILAKKLLPVVRYYSYIEITRRAHQTLWREYEHLQSTFDNFAMQHIRDQDDIYPVFRELFHKQNATAKGLEHHHHHH	not soluble
MAHHHHHHMAYPYNAYLGYTQPPTQYGQPPVVAGAHGHLPVTTPLPYNAQSAYGGAQPP	not soluble
MSDKHINLVIVTGMSGAGKTVAIQSFEDLGYFTIDNMPPALVPKFLELIEQTNENRRVALVVDMRSRLFFKEINSTLDSIESNPSIDFRILFLDATDGELVSRYKETRRSHPLAADGRVLDGIRLERELLSPLKSMSQHVVDTTKLTPRQLRKTISDQFSEGSNQASFRIEVMSFGFKYGLPLDADLVFDVRFLPNPYYQVELREKTGLDEDVFNYVMSHPESEVFYKHLLNLIVPILPAYQKEGKSVLTVAIGCTGGQHRSVAFAHCLAESLATDWSVNESHRDQNRRKETVNRS	not soluble
MAHHHHHHMACDFELPLFAAPCSEVLSTQMSVVDGKMAEKSDKAKRTARASACMIRKGFFSHFPQAILTSPESGIKTAPHPWSNASLMMAADAFSVGLMLRLRLFSIICRNPSPKPTAAGGRFAGYVFCTIPRLSADNCRRTALLKKSWSYKRMPKMAAKYKKRDAVTSISAMVKELSAGMARTDRRNFSLRDTVW	not soluble
MRGSHHHHHHGMASHITYDLPVAIEDILEAKKRLAGKIYKTGMPRSNYFSERCKGEIFLKFENMQRTGSFKIRGAFNKLSSLTEAEKRKGVVACSAGNHAQGVSLSCAMLGIDGKVVMPKGAPKSKVAATCDYSAEVVLHGDNFNDTIAKVSEIVETEGRIFIPPYDDPKVIAGQGTIGLEIMEDLYDVDNVIVPIGGGGLIAGIAIAIKSINPTIKVIGVQAENVHGMAASYYTGEITTHRTTGTLADGCDVSRPGNLTYEIVRELVDDIVLVSEDEIRNSMIALIQRNKVITEGAGALACAALLSGKLDSHIQNRKTVSIISGGNIDLSRVSQITGLVDA	soluble
MRVDRRTFLKATGAALGALALSGLPARAQGLEGEDLEHLEQALKEVFGKGFKDLTPSDAVKLNMPAIAESGANVPAEVEVALPKEQVKAIHLFADKNPTPHILAFMPMKAEPYYATRVRLAETTAIRAVVETQDGKLLLASASTRVTVGGCG	soluble
MKYQQLENLESGWKWKYLVKKHREGELITRYVEASAAQEAVNLLLALENEPVRVNVWIDRHMNPALLNRMKQTIRARRKRHFNAEHQHTRKKSIDLEFMVWQRLAGLAQRRGKTLSETIVQLIEDAEHKEKYATQMTTLKQDLQALLGKK	not soluble
QALEYSGTKRFVYVIDENNKATRQEVLLGARVDNEVVIESGVEIGDKIVVQGIVNMRDGVEVKEIVAPLKANTTDVTRNDSESVEEEN	not soluble
MGSDKIHHHHHHMVKLKDGFTGERALVLPRIIVDKMEEDPLTSMLHITDIGYYPKAKHHFRERKEPINQYVFIYCIDGAGSYRIGDQEYTVSANQYFILPAGVPHSYASNKSTPWTIYWIHFKGILAPFYAKDANRPMDIQSEQHSRISTRINLFEEIFNTLKNGYSNENLRYAFSMFHFYLGTLRYVQQYRNAGTNEAEDEGIVNVAIHYMKENMEKHLSLEEISTQIGYSPSHFSMLFKKQTGHSPLTYFNLLKMQQACLLLDTTDMKINQICYKIGIEDTYYFSRLFSKIMGMSPREYRKSKKG	not soluble
MGSDKIHHHHHHMSKRLLLFDFDETYFKHNTNEEDLSHLREMEKLLEKLTNNNEVITAVLTGSTFQSVMDKMDQVNMTFKPLHIFSDLSSKMFTWNNGEYVESETYKKKVLSEPFLFEDIEDILRHISAQYNVEFIPQRAFEGNETHYNFYFHSTGNHNNDSRILEALVRYANDQNYTARFSRSNPLAGDPENAYDIDFTPSNAGKLYATQFLMKKYNIPVKSILGFGDSGNDEAYLSYLEHAYLMSNSRDEALKQKFRLTKYPYYQGITLHVKEFVEGKYDY	not soluble
MPRYTESEWLTDFIIDALDSGRFWGVGWLDEQKRIFTVPGRNRRERMPEGFDDFYEAFLEERRRHGLPEIPETETGLGCFGRLLRTANRARQERPFTIYKGKMKLNRWIMTPRPYKGCEGCLVYLTQEPAMKNMLKALFGIYPHDDKHREKALRRSLRKKAQRREAARKQAAAVATPTTSSAAEVSSRSQSEDTESSDSENELWVGAQGFVGRDMHSLFFEEPEPSGFGSSGQSSSLLAPDSPRPSTSQVQGPLHVHTPTDLCLPTGGLPSPVIFPHETQGLLAPPAGQSQTPFSPEGPVPSHVSGLDDCLPMVDHIEGCLLDLLSDVGQELPDLGDLGELLCETASPQGPMQSEGGEEGSTESVSVLPATHPLESSAPGASVMGSGQELPDLGDLSELLCETASPQGPMQSEGGEEGSTESVSVLPATHPLESSAPGASVMGSSFQASDNVDDFIDCIPPLCRDDRDVEDQEKADQTFYWYGSDMRPKVLTATQSVAAYLSKKQAIYKVGDKLVPLVVEVYYFGEKVKTHFDLTGGIVICSQVPEASPEHICQTVPPYKCLLPRTAHCSVDANRTLEQTLDRFSMGVVAIGTNMGIFLKGLLEYPAYFVGNASRRRIGKCRPLSHRHEIQQAFDVERHNREPEGSRYASLFLGRRPSPEYDSDHYPVILHIYLAPFYHRD	not soluble
VPLEHFNVPYEDSFFPAVRVKFQGSTKTLIFHGGYDSCLEEMLPFFSAFENLGYDIIAFEGPGQGMALKNGLKFIHNWERPVSALLDYFNLNEVTILGCSWGGYFCLRAAAFEKRIKAAIVYDIFYCGMDVIGMKNKEMRYELEKLLNNNEKDKINELMYSKMKADIDFNWKISKGMDNTMTYTPYDFLKAIQLHTMDGIEELIDQDVLLLAGEEDQYVPIEAMKLFEDRLVNANITKKIFTKETGGEQHCQVGRIDLAFDEIKKFLVR	not soluble
MGSDKIHHHHHHMIPKNIHLIFLRKDEPFPELFEKCKQEIQVNHPDWNIRLYNKDDAQDILNQDLPEYIEAYNAFYHNVQKADFLRLALVYLYGGFYMDLDMLSLKPLDELRKYNLVLGEEKIVCQAEQEALNLRYRLRIANYMFGGIPKHPFLHRIMDEMAERATIILKSQQEILDITGPGLLTDTYWDNYGMYTDITLLRNTDKRCRQPYHNEISCHFGDYAAHLHAGTWRTGI	not soluble
SLHGELDKIYETLALAERRGPGPVDLLLCCGDFQAVRNEADLRCMAVPPKYRHMQTFYRYYSGEKKAPVLTLFIGGNHEASNHLQELPYGGWVAPNIYYLGLAGVVKYRGVRIGGISGIFKSHDYRKGHFECPPYNSSTIRSIYHVRNIEVYKLKQLKQPIDIFLSHDWPRSIYHYGNKKQLLKTKSFFRQEVENNTLGSPAASELLEHLKPTYWFSAHLHVKFAALMQHQAKDKGQTARATKFLALDKCLPHRDFLQILEIEHDPSAPDYLEYDIEWLTILRATDDLINVTGRLWNMPENNGLHARWDYSATEEGMKEVLEKLNHDLKVPCNFSVTAACYDPSKPQT	not soluble
MDDWKCYDFEKIKRFEKCENPATSCVKKFVHPTLPNDIPISINLQWSPWSECNDRTQTRTGQCFIRLERQLDDSDGLPENWSWLRKLNTMEKHLAFRDGVPLFNGLLASWLYEVESLESCLDTELGPKSKLSGYDNFFGNVLTSLFSNKTISGIKMSDNAFKYCIRTKTLDETNDALIGTYTEDKRTC	not soluble
MGSDKIHHHHHHMSIFISGSLAYDRIMNFPGKFSDHILPDKIHILNVCFLIDRLEEKRGGTAGNIAYSLALLGEKPTILATVGKDFDRYEEVLTGLGLPQDGIRKMDDQFTAGAYITTDQSDNQITGFNPAAMSHPCGYQFNGVTPENDLAIVSPGNLQDMVELPRKFRSMGMRYIFDPGQQITALTGDSMLECINGAHMLVSNDYELEMIMKATGRTKAELLTMTDYIITTLGENGSRIDNGEPVMVGIARPRQVLDPTGAGDAFRAGLLKGLTDGLDVAGAAKIGATCASFCVEHYGTQEHTFTPEEFKARHQAAFGA	not soluble
GHMSYSITLRVYQTNRDRGYFSIVEKTVWHFANGGTWSEANGAHTLTMGGSGTSGMLRFMSTKGERITVAVGVHNYKRWCDVVTGLKPDETALVINPQYYNNGGRDYVREKQLAEYSVTSAIGTKVEVVYTVAEGNNLEANVIFS	soluble
MEKLHQCYWKSGEPQSDDIEASRMKRAAAKHLIERYYHQLTEGCGNEACTNEFCASCPTFLRMDNNAAAIKALELYKINAKLCDPHPSKKGASSAYLENSKGAPNNSCSEIKMNKKGARIDFKDVTYLTEEKVYEILELCREREDYSPLIRVIGRVFSSAEAL	soluble
MPMRLQKSTMCGLYAVLELAANPDRQVSAGDIADKYDISLNHLAKVLRALVRARLIESVRGPGGGYRFAGNPKRVTLLDIIALFEDTGLDLQEAASDDHEESRALHKVLRDIDEIAMTTLRSVSITSLLKVIDTERRKTERGPNGASARHSSAGRA	not soluble
MSADENNLIWIDLEMTGLDPERDRIIEIATLVTDASLNILAEGPTIAVHQSDAQLALMDDWNVRTHTGSGLVDRVKASTMGERDAELATIEFLKTWVPAGKSPICGNSIGQDRRFLFKYMPELEAYFHYRYLDVSTLKELARRWKPEILAGFTKQGTHQAMDDIRESVAELAYYREHFIKL	not soluble
MAGDPMSESLAQYQEDLRRFSDELIRIQTPIKILDAIKWPREMEERFLSSKGTVLPAIKQDFYQNIALPFDPAKTQAELLSLKNDIHRRLGKKDKLGKLLVANVDQYRLVVDMLGHRGTPTFGKLSQELYGSASHRLHGDRHTLRQLGDRLSYIFSLPAARHMNKHHPKIISAPEAVNVLSQRLEKYFHSDDMRVRLSDGIVSDAAVGGDTVKLNSKAMFSESDLNVYEVHEGWVHVGTTLNGRAQPHATWLSVGSPRVAATQEGLAVLLEMLTLSSNPGRARRISDRVAAVDMAENGADFIEVFNYFRELNLSAKDSYRVTQRVFRGGMVEGGSFFTKDISYVRGYVENINFIRSAITSGLPELIPMLFLGKLAIEDIPVLYQACQEGILTPPKYLPPMFDNFSGLYAWFGFASGLAGIDLKGVQRHFTRLFKDVPSIDPSLELLDDTEFDNNSDAAALEHHHHHH	soluble
